Results from patent publication US20250019440A1 (Zymeworks, published 2025).

Legend:
[1] = target: CD3 on T cells (Homo sapiens (Human), UniProt P07766 23-207; P04234 22-171; P09693 23-182); assay: cell-based or functional assay
[2] = target: PD-L1 on cells (UniProt Q9NZQ7 19-290, limits assumed); assay: cell-based or functional assay
PD-L1 on cells, sequence (Q9NZQ7 19-290 limits assumed): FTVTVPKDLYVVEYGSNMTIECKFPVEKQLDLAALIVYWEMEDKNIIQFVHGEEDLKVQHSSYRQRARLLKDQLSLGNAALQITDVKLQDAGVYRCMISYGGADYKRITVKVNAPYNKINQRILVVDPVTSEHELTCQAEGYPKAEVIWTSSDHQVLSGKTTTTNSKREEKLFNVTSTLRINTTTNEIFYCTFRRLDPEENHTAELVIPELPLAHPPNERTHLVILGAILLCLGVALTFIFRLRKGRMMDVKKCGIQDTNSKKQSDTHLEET

CD3 on T cells, sequence (P07766 23-207 limits assumed, chain 1 of 3): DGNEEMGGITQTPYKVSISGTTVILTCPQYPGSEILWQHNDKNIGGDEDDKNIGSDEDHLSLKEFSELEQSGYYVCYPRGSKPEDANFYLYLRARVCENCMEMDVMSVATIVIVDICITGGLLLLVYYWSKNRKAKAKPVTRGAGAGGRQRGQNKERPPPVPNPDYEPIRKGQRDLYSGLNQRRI
CD3 on T cells, sequence (P04234 22-171 limits assumed, chain 2 of 3): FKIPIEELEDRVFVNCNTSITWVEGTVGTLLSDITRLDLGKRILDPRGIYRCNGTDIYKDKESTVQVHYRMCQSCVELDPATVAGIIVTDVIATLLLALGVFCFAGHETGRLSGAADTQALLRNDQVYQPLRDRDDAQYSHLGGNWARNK
CD3 on T cells, sequence (P09693 23-182 limits assumed, chain 3 of 3): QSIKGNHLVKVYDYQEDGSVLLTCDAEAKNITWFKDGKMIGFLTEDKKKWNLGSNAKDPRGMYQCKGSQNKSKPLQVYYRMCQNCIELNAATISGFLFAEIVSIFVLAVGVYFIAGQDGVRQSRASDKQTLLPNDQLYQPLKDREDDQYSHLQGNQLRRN

B1: v39009 (bispecific) (other)
heavy chain 1 (H1): EVQLVESGGGLVQPGGSLRLSCAASGVTFNYYGMSWIRQAPGKGLEWVASITSSGGRIYYPDSVKGRFTISRENTQKTLYLQMNSLRAEDTAVYYCTLDGRDGWVAYWGQGTLVTVSSASTKGPSVFPLAPSSKSTSGGTAALGCLVKDYFPEPVTVSWNSGALTSGVHTFPAVLQSSGLYSLSSVVTVPSSSLGTQTYICNVNHKPSNTKVDKKVEPKSCDKTHTCPPCPAPEAAGGPSVFLFPPKPKDTLMISRTPEVTCVVVSVSHEDPEVKFNWYVDGVEVHNAKTKPREEQYNSTYRVVSVLTVLHQDWLNGKEYKCKVSNKALPAPIEKTISKAKGQPREPQVYVYPPSRDELTKNQVSLTCLVKGFYPSDIAVEWESNGQPENNYKTTPPVLDSDGSFALVSKLTVDKSRWQQGNVFSCSVMHEALHNHYTQKSLSLSPGGGGGSGQVQLVESGGGLVQPGGSLRLSCSVSGIDLSSNPMIWVRQAPGKGLQYIGIIDTDGSTYYADWAKGRFTISKDSTTVYLQINSPRAEDTAVYYCARRLHGSSNGYYDDLWGQGTLVTVSSGGGGSGGGGSGGGGSGGGGSDGQMTQSPSSVSASVGDRVTITCQASQSIYSYLSWYQQKPGQRPKLLIYKASTLASGVPSRFSGSGSGTDFTLTISSVQPEDFATYYCQQGYTVTNVDKNTFGGGTKVEIK
light chain (L1): NFMLTQPHSVSESPGKTVTISCKRNTGNIGSNYVNWYQQHEGSSPTTIIYRNDKRPDGVSDRFSGSIDRSSKSASLTISNLKTEDEADYFCQSYSSGFIFGGGTKLTVLGQPKAAPSVTLFPPSSEELQANKATLVCLISDFYPGAVTVAWKADSSPVKAGVETTTPSKQSNNKYAASSYLSLTPEQWKSHRSYSCQVTHEGSTVEKTVAPTECSGGGGSGDRPWNPPTFSPALLVVTEGDNATFTCSFSNTSESFVLNWYRMSPSNQTDALAAFPEDRSQPGQDARFRVTQLPNGRDFHMSVVRARRNDSGTYLCGAASLAPKAQIKESLRAELRVTE
heavy chain 2 (H2): QVQLVESGGGLVQPGGSLRLSCSVSGIDLSSNPMIWVRQAPGKGLQYIGIIDTDGSTYYADWAKGRFTISKDSTTVYLQINSPRAEDTAVYYCARRLHGSSNGYYDDLWGQGTLVTVSSGGGGSGGGGSGGGGSGGGGSDGQMTQSPSSVSASVGDRVTITCQASQSIYSYLSWYQQKPGQRPKLLIYKASTLASGVPSRFSGSGSGTDFTLTISSVQPEDFATYYCQQGYTVTNVDKNTFGGGTKVEIKAAEPKSSDKTHTCPPCPAPEAAGGPSVFLFPPKPKDTLMISRTPEVTCVVVSVSHEDPEVKFNWYVDGVEVHNAKTKPREEQYNSTYRVVSVLTVLHQDWLNGKEYKCKVSNKALPAPIEKTISKAKGQPREPQVYVLPPSRDELTKNQVSLLCLVKGFYPSDIAVEWESNGQPENNYLTWPPVLDSDGSFFLYSKLTVDKSRWQQGNVFSCSVMHEALHNHYTQKSLSLSPG
EC50 (read off the curve); hybrid PD-1/PD-L1 reporter gene assay, delta RLU, PD-1+ Jurkat T cells with SNU-620 cells, bottom right graph [1]: ~0.05 nM
EC50 (read off the curve); hybrid PD-1/PD-L1 reporter gene assay, delta RLU, PD-1+ Jurkat T cells with SNU-620 cells, bottom right graph; v39009 varied in the presence of atezolizumab [1]: ~0.04 nM

B2: v39000 - A132L (other)
heavy chain 1 (H1): EVQLVESGGGLVQPGGSLRLSCAASGVTFNYYGMSWIRQAPGKGLEWVASITSSGGRIYYPDSVKGRFTISRENTQKTLYLQMNSLRAEDTAVYYCTLDGRDGWVAYWGQGTLVTVSSASTKGPSVFPLAPSSKSTSGGTAALGCLVKDYFPEPVTVSWNSGALTSGVHTFPAVLQSSGLYSLSSVVTVPSSSLGTQTYICNVNHKPSNTKVDKKVEPKSCDKTHTCPPCPAPEAAGGPSVFLFPPKPKDTLMISRTPEVTCVVVSVSHEDPEVKFNWYVDGVEVHNAKTKPREEQYNSTYRVVSVLTVLHQDWLNGKEYKCKVSNKALPAPIEKTISKAKGQPREPQVYVYPPSRDELTKNQVSLTCLVKGFYPSDIAVEWESNGQPENNYKTTPPVLDSDGSFALVSKLTVDKSRWQQGNVFSCSVMHEALHNHYTQKSLSLSPGGGGGSGQVQLVESGGGLVQPGGSLRLSCSVSGIDLSSNPMIWVRQAPGKGLQYIGIIDTDGSTYYADWAKGRFTISKDSTTVYLQINSPRAEDTAVYYCARRLHGSSNGYYDDLWGQGTLVTVSSGGGGSGGGGSGGGGSGGGGSDGQMTQSPSSVSASVGDRVTITCQASQSIYSYLSWYQQKPGQRPKLLIYKASTLASGVPSRFSGSGSGTDFTLTISSVQPEDFATYYCQQGYTVTNVDKNTFGGGTKVEIK
light chain (L1): NFMLTQPHSVSESPGKTVTISCKRNTGNIGSNYVNWYQQHEGSSPTTIIYRNDKRPDGVSDRFSGSIDRSSKSASLTISNLKTEDEADYFCQSYSSGFIFGGGTKLTVLGQPKAAPSVTLFPPSSEELQANKATLVCLISDFYPGAVTVAWKADSSPVKAGVETTTPSKQSNNKYAASSYLSLTPEQWKSHRSYSCQVTHEGSTVEKTVAPTECS
heavy chain 2 (H2): NPPTFSPALLVVTEGDNATFTCSFSNTSESFVLNWYRMSPSNQTDKLAAFPEDRSQPGQDARFRVTQLPNGRDFHMSVVRARRNDSGTYLCGAISLAPKLQIKESLRAELRVTEGGGGSGQVQLVESGGGLVQPGGSLRLSCSVSGIDLSSNPMIWVRQAPGKGLQYIGIIDTDGSTYYADWAKGRFTISKDSTTVYLQINSPRAEDTAVYYCARRLHGSSNGYYDDLWGQGTLVTVSSGGGGSGGGGSGGGGSGGGGSDGQMTQSPSSVSASVGDRVTITCQASQSIYSYLSWYQQKPGQRPKLLIYKASTLASGVPSRFSGSGSGTDFTLTISSVQPEDFATYYCQQGYTVTNVDKNTFGGGTKVEIKAAEPKSSDKTHTCPPCPAPEAAGGPSVFLFPPKPKDTLMISRTPEVTCVVVSVSHEDPEVKFNWYVDGVEVHNAKTKPREEQYNSTYRVVSVLTVLHQDWLNGKEYKCKVSNKALPAPIEKTISKAKGQPREPQVYVLPPSRDELTKNQVSLLCLVKGFYPSDIAVEWESNGQPENNYLTWPPVLDSDGSFFLYSKLTVDKSRWQQGNVFSCSVMHEALHNHYTQKSLSLSPG
EC50 (read off the curve); hybrid PD-1/PD-L1 reporter gene assay, delta RLU, PD-1+ Jurkat T cells with SNU-620 cells, top right graph; composite signal of CD3 engagement and PD-1:PD-L1 blockade [2]: ~0.04 nM

B3: v39004 - A132L (other)
heavy chain 1 (H1): EVQLVESGGGLVQPGGSLRLSCAASGVTFNYYGMSWIRQAPGKGLEWVASITSSGGRIYYPDSVKGRFTISRENTQKTLYLQMNSLRAEDTAVYYCTLDGRDGWVAYWGQGTLVTVSSASTKGPSVFPLAPSSKSTSGGTAALGCLVKDYFPEPVTVSWNSGALTSGVHTFPAVLQSSGLYSLSSVVTVPSSSLGTQTYICNVNHKPSNTKVDKKVEPKSCDKTHTCPPCPAPEAAGGPSVFLFPPKPKDTLMISRTPEVTCVVVSVSHEDPEVKFNWYVDGVEVHNAKTKPREEQYNSTYRVVSVLTVLHQDWLNGKEYKCKVSNKALPAPIEKTISKAKGQPREPQVYVYPPSRDELTKNQVSLTCLVKGFYPSDIAVEWESNGQPENNYKTTPPVLDSDGSFALVSKLTVDKSRWQQGNVFSCSVMHEALHNHYTQKSLSLSPGGGGGSGQVQLVESGGGLVQPGGSLRLSCSVSGIDLSSNPMIWVRQAPGKGLQYIGIIDTDGSTYYADWAKGRFTISKDSTTVYLQINSPRAEDTAVYYCARRLHGSSNGYYDDLWGQGTLVTVSSGGGGSGGGGSGGGGSGGGGSDGQMTQSPSSVSASVGDRVTITCQASQSIYSYLSWYQQKPGQRPKLLIYKASTLASGVPSRFSGSGSGTDFTLTISSVQPEDFATYYCQQGYTVTNVDKNTFGGGTKVEIK
light chain (L1): NFMLTQPHSVSESPGKTVTISCKRNTGNIGSNYVNWYQQHEGSSPTTIIYRNDKRPDGVSDRFSGSIDRSSKSASLTISNLKTEDEADYFCQSYSSGFIFGGGTKLTVLGQPKAAPSVTLFPPSSEELQANKATLVCLISDFYPGAVTVAWKADSSPVKAGVETTTPSKQSNNKYAASSYLSLTPEQWKSHRSYSCQVTHEGSTVEKTVAPTECS
heavy chain 2 (H2): QVQLVESGGGLVQPGGSLRLSCSVSGIDLSSNPMIWVRQAPGKGLQYIGIIDTDGSTYYADWAKGRFTISKDSTTVYLQINSPRAEDTAVYYCARRLHGSSNGYYDDLWGQGTLVTVSSGGGGSGGGGSGGGGSGGGGSDGQMTQSPSSVSASVGDRVTITCQASQSIYSYLSWYQQKPGQRPKLLIYKASTLASGVPSRFSGSGSGTDFTLTISSVQPEDFATYYCQQGYTVTNVDKNTFGGGTKVEIKAAEPKSSDKTHTCPPCPAPEAAGGPSVFLFPPKPKDTLMISRTPEVTCVVVSVSHEDPEVKFNWYVDGVEVHNAKTKPREEQYNSTYRVVSVLTVLHQDWLNGKEYKCKVSNKALPAPIEKTISKAKGQPREPQVYVLPPSRDELTKNQVSLLCLVKGFYPSDIAVEWESNGQPENNYLTWPPVLDSDGSFFLYSKLTVDKSRWQQGNVFSCSVMHEALHNHYTQKSLSLSPGGGGGSGDRPWNPPTFSPALLVVTEGDNATFTCSFSNTSESFVLNWYRMSPSNQTDKLAAFPEDRSQPGQDARFRVTQLPNGRDFHMSVVRARRNDSGTYLCGAISLAPKLQIKESLRAELRVTE
EC50 (read off the curve); hybrid PD-1/PD-L1 reporter gene assay, delta RLU, PD-1+ Jurkat T cells with SNU-620 cells, bottom graph; composite signal of CD3 engagement and PD-1:PD-L1 blockade [2]: ~0.04 nM
